Assay results as given in US20090282582A1, “ENVIRONMENTAL STRESS RESPONSIVE PROMOTER AND METHOD OF TISSUE-SPECIFIC GENE EXPRESSION USING THE SAME” (RIKEN, priority 2006, published 2009).

B1: Promoter of RAFL06-16-J10: environmental stress responsive promoter DNA, SEQ ID NO: 5, upstream of At2g06050 (OPR3 gene) (nucleic acid, listed as Arabidopsis thaliana)
DNA: CCTGGGACTTGGGCTGAGAATAATGAAGTGGCTGGGAAATGATTAGTTAAGGATGGCTTGATGAATTCTCAATATTCTGTTGAGGGAACAAAATATACTAGGAAGGATGCAAGTCCAGTTTGGTCTAAACCATTGTACGAACCAAAAACAATCAATAAAGTAACTCAGGGCTCACAAATGGTCGATAATATTTCTAAAGTTTCAGTTCTAGAGGATGAGCAAAAGGATTTGATGATGGGAGATGTACTAGAGGTACAAGACAAGAGTCTCACTGAAGGGTTGAATTTCAGATATTTTAAATCACGTTTGGAGTAACAAAAAACAAATGTGAGAAGGAGCTCAATTAGCTCCAACTGAATCTAGTGTTATTAGGGATACTTTGGAAACTCCAATTCAATCTTTAAGATGTAGGATTGATGAATTCATGGAAATCGGCAGATCCATCTATGAATTTAGTATGGTGGTGTTTCCTAGGAATTGACAATACAATTTTACTTGGTGCAAAGTGTCTTCGGAGGTGTCCCTTTCTTTTTCACTCGGAATTGGAAGTTTTAATATTGGCAATAAAAAATATCCTTTCAAGAAGGATAAAGTGTCAGGCATTTGAAACAGATAATTATTCAGAGTAAGTTTTGATGGTACAGTCCCCTGAAGAATGACTCGCTTTCTCTAATTTTTTAGAAGATCTTGAATTGCTATGTGTCTCCTTTTCTTGCTTTCTTCTATTTCATGTTTATGTAATACTAAGGCAAACTATTTAGCACAATATTCTAAACTTTTATTTTCTGAAGTTATTTTTTAAACCCTTTCCCTCCTAATTGGACAACCAATCATGGAATTAGTTTTTACGTAATGTTTTAAACTCACTATTTCACCTTTATTCTGACCTGTTAATGGAAGACAACTATGACTTTATACATTGAAATGTTGTCAACCTGTTATATATTAATGTTAACATAGCTAATGACCTATCAATGTACGTAAAGCGAATGTCAATCATATTCGTATCCGTTAATTTCATTTAGGAAATCAGGCTCATTGCCAATCCACTAAGAAACATCTCTGATAGATCCAAATAATAAAAATAATATAATATGAAGCAAAATAGAACGAAATATCTCACGCGGACCAAACTTTGAACTTTATTATAAAACAAATCAGCACGTGAAAGTAATGGTCGGTTCGGTCCAAGATGCCAAGAACTCCTCCGGTCCATCCATCAACCTAACCTTTTTTGGATATAAAATTTAGCAAATTCCATTTCCACGACCACACAACAACAACACATCCACTCGAATTTTCTATTTCCGAATAACAAAACCGGTAAACTCATCACAAACTTAAGTTACTTTGTAGTTTGTGTTTTGTCCTTTTATGTAATGAAGAAGATCCAACTAACTACTACTCAATATTTTTGTATTGACCGTTGATTTCTCAGATCTGACTTTTACTTCTCCTTCTTCCAGATCGGCGGAGAC
B2: Promoter of RAFL07-08-I12: environmental stress responsive promoter DNA, SEQ ID NO: 6, upstream of At2g26530 (homolog of calmodulin-binding protein) (nucleic acid, listed as Arabidopsis thaliana)
DNA: CGGGTTTTATTTTGGAATTGGGTTATATGGTGGATGTATTTGAATCAATATTTATAAAAATTTAACAATTATCTCATGGATTCGTGGTATAACGTTACCTAATAACAATTATAAACTGTAAAATAAAAATATTTTATAAAAATAAAATTTGCAAGTTTTAATATATATTACTTTTAAAAAATAAATCGTCCCGCGGTATACCGCGGGTTAAAATCTAGTCTATGTTTATTATAAAAGAATACAATGTATTAATGTATAAATTATCTTATGCATGAGCACGATGATCATCTAGTAGTATACATCTTACCCGTCGACAAAAACAAAATGTTCCTTATCCAGTATCTAGATGGATCGTGTGAACTCAATTCTACGTAGAACACAAAAGTCCTCTCGTTTGGTCACTGAATTAATTTGAACGATATTATTTATTAGGACCACCGGTTAAATTGGCCTCGTGGTCTAAATATGCCTTCGAATGGTCCAACAACCATGTGGTCAATGCCGACTATGAAAATGACTGAAAATTCAAAACATGTAAGTGGGTTACCACCACTTATCATTATGTTCCAAATCGTTTGCATTAAACAACTTTATTTCGACACATGCGGTCTGAAAAGGCGGCCAATTAATTTACGTTAATCATCGTTTACTATTATTATCTTCGGAATATTTCCAACACAATCAATCTAGTTGGTTCCAATTCTCATCACATATTTTATTTTATAGTTTAAAGTCTTTCAATTCAGTAGTCTAACTGTATAACATATGACTTCGAACAGATTGATATAGACCACTCAATCTAATAATATCGTTTTAGCTACGAAGAGTATACAAAAAAAGCTAGTTGGATAGTTTAAAAATTAAATGCTAGAAGAATGTTGGATATATCAAACAATAAAATTAATATTTAGAGAGAAAATATCGTAATAGAGTTTTTTCTATAAATAAATTTTTGAGTTAAAAAATATTATTAGCCTGACCAAACTCTTTTTATTTCTTTAAACTATGACAGTAAGATCTAAATTTTAATAAACCAATGTTTATTTAATATTTTCAGAAATGGGCTAAAAATGACTAGTTGTTGTATGTGTTTCCTTTGAATAAAAGCTCAACAAACAAAAACTAGAAGTCATTATGTAAAAAAACTAATGACATAGTATTAGGTATTTTTTGCAAATTATTCACACATGTTGCCAAAAGTTGTTTTTTATATTATATGTTTGGTCAGCGAAAACGGTTTAAAGCACTCTCTCTTTCCTCTCGCCTTCCTTTGATGATCCTTTTTAGTTCCCTTCTTCTCATTGCTCTTGAGACCATCTCCGAACTCAAAGGAAACTAGAAACA

Tests used:
[1] = tested on: transgenic Arabidopsis thaliana plant body (luciferase reporter gene); assay: luciferase assay of promoter::LUC transgenic plants after environmental stress application; format: in vivo; settings: for Tissue in which specific induction of expression is realized / time after stress application at which activity to induce gene expression is exhibited: Dehydration stress; for time after stress application at which activity to induce gene expression is lowered: dehydration stress, stem and leaf tissue; for Tissue allowing specific induction: summary over stress types
Experimental: Specifically, promoter regions were isolated from these genes, transgenic plants in which luciferase reporter genes were to be expressed under the control of such promoters were prepared, and tissue specificity of the promoters was inspected via luciferase assay.
In this example, DNA fragments containing promoter regions of the genes identified in Example 1 were recovered via PCR.
The nucleotide sequences of the amplified DNA fragments were determined in accordance with a conventional technique to confirm that mutagenesis, such as substitution or deletion, was not introduced thereinto. After the absence of mutagenesis was confirmed, the recovered DNA fragments were introduced into the vector for promoter analysis (i.e., a vector prepared by introducing the Gateway recombinant sequence (tradename: Gateway Vector Conversion System, Invitrogen) and the luciferase reporter gene into the pGreen vector (Plant Molecular Biology 42: 819-832, 2000)) using the Gateway recombination system to construct a recombinant vector.
The recombinant vector prepared in (1) above was introduced into a plant via Agrobacterium infection. When a gene is introduced via Agrobacterium infection, a process of infecting a plant with Agrobacterium containing a plasmid comprising the target gene construct is necessary. This process was carried out via vacuum infiltration. Specifically, a plant body of Arabidopsis thaliana that had been grown in soil comprising vermiculite and an equivalent amount of pearlite was soaked in a culture solution of Agrobacterium containing the recombinant vector prepared in (1). The resultant was placed in a desiccator, suctioned with a vacuum pump to 65 to 70 mmHg, and then allowed to stand at room temperature for 5 to 10 minutes. The pot was transferred onto a tray, covered with a wrap, and kept moistened. The wrap was removed on the following day, the plant was allowed to grow in that state, and seeds were then harvested.
Subsequently, seeds were sown on MS agar medium to which antibiotic hygromycin has been added in order to select an individual having the recombinant vector prepared in (1). Arabidopsis thaliana that had been grown in this medium was transferred to a pot and allowed to grow therein. Thus, seeds of transgenic plants to which the recombinant vector prepared in (1) has been introduced were obtained.
The seeds of the transgenic plant lineage prepared in (2) were sowed on MS agar medium. The plant body 10 days after sowing was used for luciferase assay.
At the outset, 1 mM luciferin (containing 0.01% Triton-X) was sprayed over the entire plant body 5 times. After the plant body was allowed to stand in the dark for 5 minutes, luciferase luminescence was assayed using ARGUS (assay after treatment for 0 hours). Subsequently, various types of environmental stresses were applied (see below). Low-temperature stress application was carried out by introducing a plate containing a plant body into a low-temperature chamber (4° C.). Dehydration stress application was carried out by capturing the plant body with forceps while refraining from damaging the plant body, roughly removing moisture from the plant body on a Kim Towel, placing the plant body on another plate, placing the plate in a clean bench while leaving the lid open, letting it stand for 2 hours, and then closing the lid. Salt stress application was carried out by dispensing a mixture of MS medium (containing 1% sucrose, 0.1% agar, and 1 mM luciferin) with 250 mM NaCl to the roots of the plant bodies (200 μl per plant body) using a Pipetman. ABA stress application was carried out by dispensing a mixture of MS medium (containing 1% sucrose, 0.1% agar, and 1 mM luciferin) with 100 μM ABA to the roots of the plant bodies (200 μl per plant body) using a Pipetman.
Luciferase luminescence was assayed 2, 5, and 10 hours after the above various types of environmental stresses had been applied using the ARGUS system (Hamamatsu Photonics). […]

[2] = tested on: Arabidopsis thaliana (columbia ecotype) plant body; assay: full-length cDNA microarray analysis of gene expression levels after environmental stress application; settings: in vivo
Experimental: In this example, the gene expression levels at the time of application of various types of environmental stresses were analyzed using microarrays. Specifically, the microarrays described in Seki et al., “Monitoring the expression profiles of 7000 Arabidopsis genes under drought, cold, and high-salinity stresses using a full-length cDNA microarray,” Plant J. 31: 279-292, 2002, were used, and analysis was carried out in accordance with the method similar to the method described therein. Various types of environmental stresses were applied to a plant body under the following conditions. Specifically, low-temperature stress application was carried out by introducing a plate containing a plant body into a low-temperature chamber (4° C.). Dehydration stress application was carried out by capturing the plant body with forceps while refraining from damaging the plant body, roughly removing moisture from the plant body on a Kim Towel, placing the plant body on another plate, placing the plate in a clean bench while leaving the lid open, letting it stand for 2 hours, and then closing the lid. Salt stress application was carried out by dispensing a mixture of MS medium (containing 1% sucrose, 0.1% agar, and 1 mM luciferin) with 250 mM NaCl to the roots of the plant bodies (200 μl per plant body) using a Pipetman. ABA stress application was carried out by dispensing a mixture of MS medium (containing 1% sucrose, 0.1% agar, and 1 mM luciferin) with 100 μM ABA to the roots of the plant bodies (200 μl per plant body) using a Pipetman. As a plant body to which environmental stress is to be applied, Arabidopsis thaliana (columbia ecotype), which had been cultivated on a germination medium containing Murashige and Skoog Salt, 3% sucrose, and […] for 3 weeks, was used. Cultivation conditions were determined so as to maintain the temperature in the chamber at 22° C. with a 16-hour light period and an 8-hour dark period. Total RNA was extracted from plant bodies after environmental stress application or from plant bodies to which no environmental stress had been applied using the TRIZOL Reagent (Life Technologies), and mRNA was extracted using the mRNA isolation kit (Militenyi Biotec Auburn). In accordance with the method described in the above article, mRNA samples were reversely transcribed in the presence of Cy3 dUTP or Cy5 dUTP (Amersham Pharmacia). Microarray analysis was carried out using cDNAs obtained via reverse transcription. Data obtained via microarray analysis were analyzed using the Quantarray Version 2.0 (GSI Lumonics).

Row | Molecule | Tissue in which specific induction of expression is realized [1] | time after stress application at which activity to induce gene expression is exhibited [1] | Tissue in which specific induction of expression is realized ([1]; listed as promoter of RAFL06-16-J10) | time after stress application at which activity to induce gene expression is lowered [1] | Tissue allowing specific induction [1] | Environmental stress type to which the promoter responds [2] | Tissue in which specific induction of expression is realized ([1]; listed as promoter of RAFL07-08-I12)
1 | B1 | Stem and leaf tissue | about 2 hours | stem and leaf tissue | about 10 hours | Stem and leaf tissue | Dehydration and salt | –
2 | B2 | Stem and leaf tissue | about 2 hours | – | about 5 hours | Stem and leaf tissue | Dehydration and salt | stem and leaf tissue
